From US20200308228A1 (KING ABDULAZIZ UNIVERSITY, published 2020)
“Also recorded” adds a separate entry of the source. Where no end group is shown, it is not given here. [ ]: non-standard residue; d: D form. The star is where a group is joined. FITC = O=C1OC2(c3ccc(O)cc3Oc3cc(O)ccc32)c2ccc(NC(=S)*)cc21; hI = homoisoleucine, (2S)-2-amino-4-methylhexanoic acid; Chg = N[C@H](C(=O)O)C1CCCCC1; Ahx = NCCCCCC(=O)O

Legend:
[1] = biological target: T1, Pep-15 of SEQ ID NO: 20 (KKGSx[…])
T1 chain: KKGSGVIVGRIVLSGKK

[2] = biological target: T2, NS3 of SEQ ID NO: 3 (NS3 domain of Hepatitis C virus genotype 4a fused to the T7 tag at the N-terminus and … (Hepatitis C virus (genotype 4a))); test: differential static light scattering (DSLS), NS3:peptide 1:2, 2 h at room temperature
T2 construct: also called HCV NS3 genotype 4a
T2 chain: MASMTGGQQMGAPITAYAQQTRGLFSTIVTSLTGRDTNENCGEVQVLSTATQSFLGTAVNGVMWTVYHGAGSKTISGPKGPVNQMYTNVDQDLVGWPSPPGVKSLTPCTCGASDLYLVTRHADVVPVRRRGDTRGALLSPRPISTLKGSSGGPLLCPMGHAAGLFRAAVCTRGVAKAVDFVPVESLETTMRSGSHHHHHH

[3] = biological target: T2, NS3 of SEQ ID NO: 3 (NS3 domain of …); test: differential static light scattering (DSLS)
[4] = biological target: T2, NS3 of SEQ ID NO: 3 (NS3 domain of …); test: competition fluorescence anisotropy against 0.1 µM labelled NS4A peptide with 1.8 µM NS3
[5] = biological target: T2, NS3 of SEQ ID NO: 3 (NS3 domain of …); test: fluorescence anisotropy, 0.1 µM labelled peptide titrated with NS3

B1: NS3 of SEQ ID NO: 3 (NS3 domain of Hepatitis C virus genotype 4a fused to the T7 tag at the N-terminus and 6-His tag at the C-terminus) (protein)
chain: MASMTGGQQMGAPITAYAQQTRGLFSTIVTSLTGRDTNENCGEVQVLSTATQSFLGTAVNGVMWTVYHGAGSKTISGPKGPVNQMYTNVDQDLVGWPSPPGVKSLTPCTCGASDLYLVTRHADVVPVRRRGDTRGALLSPRPISTLKGSSGGPLLCPMGHAAGLFRAAVCTRGVAKAVDFVPVESLETTMRSGSHHHHHH
For B1, the “protease activity (cleavage of 5FAM-substrate of SEQ ID NO: 22, fluorescence at 520 nm)” value [1] was “maintained 69.7% of the enzyme activity during the first 60 minutes; also recorded: After 60 minutes, it was observed that the activity of the enzyme completely disappeared”.

B2: NS4A peptide of SEQ ID NO: 4 (KK-[…]-KK, comprising the native NS4A21-33 of SEQ ID NO: 2) (peptide)
peptide: KKGSVVIVGRIVLSGKK
notes: Synthetic peptide; the KK at each end is not part of NS4A
Work on B2 yielded a ΔTagg [2] of 2.83 ° C.

KKGSFVIVGRIVLSGKK [Pep-11 of SEQ ID NO: 16 (KKGSFVIVGRIVLSGKK)]: binds [3].

KKGSWVIVGRIVLSGKK [Pep-12 of SEQ ID NO: 17 (KKGSWVIVGRIVLSGKK)]: binds [3].

KKGSAVIVGRIVLSGKK [Pep-13 of SEQ ID NO: 18 (KKGSAVIVGRIVLSGKK)]: binds [3].

KKGS[hI]VIVGRIVLSGKK [Pep-14 of SEQ ID NO: 19 (KKGSh[…])]: binds [3].

KKGS[Chg]VIVGRIVLSGKK [Pep-15 of SEQ ID NO: 20 (KKGSx[…])] showed a Kd [4] of 70 nM and a Tagg shift [3] of 3.9 ° C.

B3: isothiocyanate-labeled NS4A peptide of SEQ ID NO: 25 (FITC-NS4A) (peptide)
peptide: {FITC}-[Ahx]KKGSVVIVGRIVLSGKK
notes: also called fluorescein isothiocyanate-NS4A
Work on B3 yielded a Kd [5] of 169 nM.
